Assay [1] deals with Nicotinamide Nucleotide Transhydrogenase (NNT), endogenous, mouse kidney (mouse) (UniProt Q61941). The assay can be described thus: anti-HA immunoprecipitation from DTSSP-crosslinked crude mitochondria, LC-MS/MS proteomics, n=3 per group.
The target of assay [2] is Ganab (glucosidase II alpha-subunit), endogenous, mouse kidney (mouse) (UniProt Q8BHN3). The experiment in a line: anti-HA immunoprecipitation from DTSSP-crosslinked crude mitochondria (contain MAMs), LC-MS/MS proteomics.
Ganab (glucosidase II alpha-subunit), endogenous, mouse kidney (mouse), sequence (Q8BHN3 33-944 limits assumed): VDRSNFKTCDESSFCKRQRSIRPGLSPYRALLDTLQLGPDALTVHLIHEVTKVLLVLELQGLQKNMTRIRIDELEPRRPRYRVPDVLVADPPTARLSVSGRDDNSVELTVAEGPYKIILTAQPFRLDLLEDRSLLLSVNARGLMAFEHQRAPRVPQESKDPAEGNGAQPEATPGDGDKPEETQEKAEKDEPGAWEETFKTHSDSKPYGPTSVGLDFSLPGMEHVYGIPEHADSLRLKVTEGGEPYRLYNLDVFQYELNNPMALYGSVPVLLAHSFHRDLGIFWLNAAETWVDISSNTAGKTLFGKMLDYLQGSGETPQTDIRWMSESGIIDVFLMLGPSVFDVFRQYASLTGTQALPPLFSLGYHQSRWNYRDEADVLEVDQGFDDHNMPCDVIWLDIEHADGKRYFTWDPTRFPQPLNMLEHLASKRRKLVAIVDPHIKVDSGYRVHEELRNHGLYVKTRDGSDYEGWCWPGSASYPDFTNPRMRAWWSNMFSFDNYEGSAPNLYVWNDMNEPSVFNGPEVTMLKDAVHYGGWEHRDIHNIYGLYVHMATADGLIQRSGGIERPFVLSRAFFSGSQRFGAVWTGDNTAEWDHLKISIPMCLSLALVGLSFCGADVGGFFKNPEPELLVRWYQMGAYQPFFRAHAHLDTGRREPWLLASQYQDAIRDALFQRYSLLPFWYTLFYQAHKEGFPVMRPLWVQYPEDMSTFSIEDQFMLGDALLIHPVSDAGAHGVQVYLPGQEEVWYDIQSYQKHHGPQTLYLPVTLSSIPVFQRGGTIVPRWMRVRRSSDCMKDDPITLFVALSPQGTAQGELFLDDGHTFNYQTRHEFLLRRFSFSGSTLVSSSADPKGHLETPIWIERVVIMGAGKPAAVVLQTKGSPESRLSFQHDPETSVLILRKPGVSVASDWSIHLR

Drawing on patent publication US20240400627A1, this text covers fold amount of NNT co-immunoprecipitated against control WT immunoprecipitates and fold enrichment in immunoprecipitates against WT for one substance.

3FLAG-PC1-3HA (PC1 tagged with a 3xFLAG epitope at its N-terminus and a 3xHA sequence at its C-terminus, Pkd1F/H-BAC mouse) and its HA-tagged fragments (150-kDa CTF; PC1-CTT-3HA fragments of 17-37 kDa, sequence (O08852 3041-4293): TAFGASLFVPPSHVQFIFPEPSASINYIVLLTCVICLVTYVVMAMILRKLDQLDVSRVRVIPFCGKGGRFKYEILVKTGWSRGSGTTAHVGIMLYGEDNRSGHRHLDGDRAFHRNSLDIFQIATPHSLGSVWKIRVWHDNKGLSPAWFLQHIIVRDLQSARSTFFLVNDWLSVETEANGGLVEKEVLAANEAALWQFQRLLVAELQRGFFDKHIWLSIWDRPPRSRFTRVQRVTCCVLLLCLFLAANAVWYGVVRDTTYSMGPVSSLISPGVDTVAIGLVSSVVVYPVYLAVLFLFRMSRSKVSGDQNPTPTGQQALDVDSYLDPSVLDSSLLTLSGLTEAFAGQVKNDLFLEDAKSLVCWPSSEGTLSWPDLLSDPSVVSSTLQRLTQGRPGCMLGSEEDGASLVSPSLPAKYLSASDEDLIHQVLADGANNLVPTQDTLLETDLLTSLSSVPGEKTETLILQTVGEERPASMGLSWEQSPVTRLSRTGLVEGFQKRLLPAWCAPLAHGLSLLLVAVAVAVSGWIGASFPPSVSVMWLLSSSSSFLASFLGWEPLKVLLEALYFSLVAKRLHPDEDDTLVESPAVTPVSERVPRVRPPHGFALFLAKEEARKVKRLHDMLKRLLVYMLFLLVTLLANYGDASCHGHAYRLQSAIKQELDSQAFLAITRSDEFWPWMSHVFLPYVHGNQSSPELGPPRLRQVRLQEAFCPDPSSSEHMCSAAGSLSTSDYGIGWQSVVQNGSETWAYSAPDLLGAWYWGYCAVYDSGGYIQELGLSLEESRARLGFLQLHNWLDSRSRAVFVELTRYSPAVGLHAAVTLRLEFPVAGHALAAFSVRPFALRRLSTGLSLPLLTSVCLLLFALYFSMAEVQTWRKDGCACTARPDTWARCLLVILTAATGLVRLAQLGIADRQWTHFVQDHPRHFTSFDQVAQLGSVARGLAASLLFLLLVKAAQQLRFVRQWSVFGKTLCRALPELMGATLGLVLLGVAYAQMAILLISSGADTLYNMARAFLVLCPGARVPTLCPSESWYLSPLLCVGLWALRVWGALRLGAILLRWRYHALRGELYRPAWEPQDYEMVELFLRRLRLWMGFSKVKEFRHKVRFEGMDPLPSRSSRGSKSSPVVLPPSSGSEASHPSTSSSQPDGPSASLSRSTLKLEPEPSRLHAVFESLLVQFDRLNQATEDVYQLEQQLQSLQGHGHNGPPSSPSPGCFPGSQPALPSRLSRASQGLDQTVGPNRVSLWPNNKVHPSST
Nicotinamide Nucleotide Transhydrogenase (NNT), endogenous, mouse kidney (mouse), sequence (Q61941 44-1086 limits assumed): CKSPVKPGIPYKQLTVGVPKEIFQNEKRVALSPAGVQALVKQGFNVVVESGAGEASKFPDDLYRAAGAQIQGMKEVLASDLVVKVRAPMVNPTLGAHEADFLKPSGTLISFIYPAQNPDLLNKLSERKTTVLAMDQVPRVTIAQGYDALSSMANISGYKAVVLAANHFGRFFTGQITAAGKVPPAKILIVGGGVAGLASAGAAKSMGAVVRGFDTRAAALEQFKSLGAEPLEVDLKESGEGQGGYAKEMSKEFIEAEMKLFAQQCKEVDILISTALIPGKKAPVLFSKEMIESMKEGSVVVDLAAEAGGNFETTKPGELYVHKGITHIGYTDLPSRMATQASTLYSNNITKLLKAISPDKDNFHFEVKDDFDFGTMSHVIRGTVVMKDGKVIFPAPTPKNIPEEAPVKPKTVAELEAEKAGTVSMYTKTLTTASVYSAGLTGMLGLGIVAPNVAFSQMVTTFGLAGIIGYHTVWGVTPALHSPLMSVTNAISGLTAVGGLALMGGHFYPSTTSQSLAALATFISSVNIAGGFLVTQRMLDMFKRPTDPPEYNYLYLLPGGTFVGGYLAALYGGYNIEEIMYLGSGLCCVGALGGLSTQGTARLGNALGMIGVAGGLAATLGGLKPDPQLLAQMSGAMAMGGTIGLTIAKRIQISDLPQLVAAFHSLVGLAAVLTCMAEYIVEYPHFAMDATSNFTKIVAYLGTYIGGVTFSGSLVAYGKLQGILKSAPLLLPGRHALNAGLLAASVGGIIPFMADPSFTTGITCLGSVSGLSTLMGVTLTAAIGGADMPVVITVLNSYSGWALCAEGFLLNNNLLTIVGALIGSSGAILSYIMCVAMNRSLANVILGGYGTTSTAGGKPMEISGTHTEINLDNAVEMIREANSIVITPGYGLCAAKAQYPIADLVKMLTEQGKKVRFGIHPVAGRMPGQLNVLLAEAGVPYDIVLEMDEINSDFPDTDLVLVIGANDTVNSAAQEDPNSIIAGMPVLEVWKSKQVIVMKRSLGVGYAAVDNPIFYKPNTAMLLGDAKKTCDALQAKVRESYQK

“3FLAG-PC1-3HA (PC1 tagged with a 3xFLAG epitope at its N-terminus and a 3xHA sequence at its C-terminus, Pkd1F/H-BAC mouse) and its HA-tagged fragments (150-kDa CTF; PC1-CTT-3HA fragments of 17-37 kDa) (from UniProt O08852 3041-4293)” showed a fold amount of NNT co-immunoprecipitated against control WT immunoprecipitates in assay [1] greater than 16 fold. In addition, the fold enrichment in immunoprecipitates against WT in assay [2] was 4 fold.
